Source: paper PMC10786891, “Massively parallel profiling of RNA-targeting CRISPR-Cas13d”
Where a chain is given by its changes, count along the chain named. Names and notes keep the numbering of the source.

T1: EsCas13d, nuclease-dead (Eubacterium siraeum, UniProt B0MS50, R295A;H300A;R849A;H854A)
T1 sequence: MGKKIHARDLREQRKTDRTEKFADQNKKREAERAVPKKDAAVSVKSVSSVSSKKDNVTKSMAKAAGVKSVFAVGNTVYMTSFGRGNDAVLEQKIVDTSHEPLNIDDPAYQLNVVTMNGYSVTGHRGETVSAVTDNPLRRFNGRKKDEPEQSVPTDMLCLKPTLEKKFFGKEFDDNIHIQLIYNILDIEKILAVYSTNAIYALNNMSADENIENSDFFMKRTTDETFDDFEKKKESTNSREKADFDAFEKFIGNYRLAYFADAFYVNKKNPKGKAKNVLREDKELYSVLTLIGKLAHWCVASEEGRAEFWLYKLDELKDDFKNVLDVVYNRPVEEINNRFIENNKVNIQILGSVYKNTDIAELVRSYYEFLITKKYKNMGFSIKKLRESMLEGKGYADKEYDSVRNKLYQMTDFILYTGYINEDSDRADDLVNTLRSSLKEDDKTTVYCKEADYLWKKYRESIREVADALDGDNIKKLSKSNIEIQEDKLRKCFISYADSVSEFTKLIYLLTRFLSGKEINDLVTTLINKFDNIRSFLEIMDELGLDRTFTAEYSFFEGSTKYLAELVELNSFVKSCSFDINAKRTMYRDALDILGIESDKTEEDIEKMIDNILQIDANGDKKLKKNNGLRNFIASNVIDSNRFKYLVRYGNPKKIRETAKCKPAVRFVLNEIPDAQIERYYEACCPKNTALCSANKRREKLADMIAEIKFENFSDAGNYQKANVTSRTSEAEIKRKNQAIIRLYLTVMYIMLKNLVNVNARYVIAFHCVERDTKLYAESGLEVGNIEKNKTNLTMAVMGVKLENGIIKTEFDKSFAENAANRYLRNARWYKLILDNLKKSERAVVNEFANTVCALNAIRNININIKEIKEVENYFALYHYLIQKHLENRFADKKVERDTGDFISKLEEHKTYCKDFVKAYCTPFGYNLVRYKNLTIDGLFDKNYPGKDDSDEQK

B1: target 1 insA 3' of 5,insA 3' of 2 (mixed)
RNA 1: CACCCGUGCAAAAAUGCAGGGGUCUAAAACUGAGCGGAUAACCUCUCUAUGG
RNA 2: GGGAAUGGAUCCACAUCUACGAAUUCGUACCAUAGAGAGGUUAUCCGACUCAACCGAGAUCGGAAGAGCACACGU
B2: target 1 insA 3' of 5,insC 3' of 1 (mixed)
RNA 1: B1 RNA 1
RNA 2: B1 RNA 2 with A53C
B3: target 1 insU 3' of 21,insC 3' of 5 (mixed)
RNA 1: B1 RNA 1
RNA 2: GGGAAUGGAUCCACAUCUACGAAUUCGUACCUAUAGAGAGGUUAUCCGCCUCACCGAGAUCGGAAGAGCACACGU
B4: target 3 C6G,U22A (mixed)
RNA 1: CACCCGUGCAAAAUUGCAGGGGUCUAAAACGACCUGAAUAUUUCAGAUCAAA
RNA 2: GGGAAUGGAUCCACAUCUACGAAUUCGUUAUUGAUCUGAAAUAUUGAGGUCUGCAGAUCGGAAGAGCACACGU
B5: target 3 insG 3' of 6,insG 3' of 2 (mixed)
RNA 1: B4 RNA 1
RNA 2: GGGAAUGGAUCCACAUCUACGAAUUCGUUUUUGAUCUGAAAUAUUCGAGGUGCUGCAGAUCGGAAGAGCACACGU
B6: target 3 insU 3' of 22,insG 3' of 2 (mixed)
RNA 1: B4 RNA 1
RNA 2: GGGAAUGGAUCCACAUCUACGAAUUCGUUUUUUGAUCUGAAAUAUUCAGGUGCUGCAGAUCGGAAGAGCACACGU
B7: target 3 insC 3' of 4,insA 3' of 2 (mixed)
RNA 1: B4 RNA 1
RNA 2: B5 RNA 2 with G47A, A48G, G49C, G52A
B8: target 3 C6U,A12U (mixed)
RNA 1: B4 RNA 1
RNA 2: B4 RNA 2 with A30U, A40U, G46U
B9: target 3 G4C,U22G (mixed)
RNA 1: B4 RNA 1
RNA 2: B4 RNA 2 with A30G, G46C, G48C
B10: target 3 insC 3' of 9,insA 3' of 6 (mixed)
RNA 1: B4 RNA 1
RNA 2: B5 RNA 2 with U44C, C46U, G47C, G49A, U51G, G52U
B11: target 3 C6G,U8C (mixed)
RNA 1: B4 RNA 1
RNA 2: B4 RNA 2 with A30U, U44C
B12: target 3 insG 3' of 7,insU 3' of 4 (mixed)
RNA 1: B4 RNA 1
RNA 2: B5 RNA 2 with C46G, G47C, G50U, U51G, G52U
B13: target 3 U2A,U7A (mixed)
RNA 1: B4 RNA 1
RNA 2: B4 RNA 2 with A30U, U45A, G46C, U50A
B14: target 3 U7A,U8G (mixed)
RNA 1: B4 RNA 1
RNA 2: B4 RNA 2 with A30U, U44G, U45A, G46C
B15: target 3 G4A,U7A (mixed)
RNA 1: B4 RNA 1
RNA 2: B4 RNA 2 with A30U, U45A, G46C, G48A
B16: target 3 U2G,G4U (mixed)
RNA 1: B4 RNA 1
RNA 2: B4 RNA 2 with A30U, G46C, G48U, U50G
B17: target 3 insC 3' of 9,insA 3' of 7 (mixed)
RNA 1: B4 RNA 1
RNA 2: B5 RNA 2 with U44C, C46U, G47A, A48C, G49A, U51G, G52U
B18: target 3 U7C,U22C (mixed)
RNA 1: B4 RNA 1
RNA 2: B4 RNA 2 with A30C, U45C, G46C
B19: target 3 G3U,C6U (mixed)
RNA 1: B4 RNA 1
RNA 2: B4 RNA 2 with A30U, G46U, G49U
B20: target 3 insG 3' of 9,insU 3' of 5 (mixed)
RNA 1: B4 RNA 1
RNA 2: B5 RNA 2 with U44G, C46U, G47C, G49U, U51G, G52U
B21: target 3 insA 3' of 22,insC 3' of 20 (mixed)
RNA 1: B4 RNA 1
RNA 2: GGGAAUGGAUCCACAUCUACGAAUUCGUUUAUUCGAUCUGAAAUAUUCAGGUCUGCAGAUCGGAAGAGCACACGU
B22: target 3 insG 3' of 7,insU 3' of 3 (mixed)
RNA 1: B4 RNA 1
RNA 2: B5 RNA 2 with C46G, G47C, G52U
B23: target 3 insC 3' of 13,insC 3' of 3 (mixed)
RNA 1: B4 RNA 1
RNA 2: B5 RNA 2 with A40C, U42A, A43U, U44A, C46U, G47C, U51C, G52U
B24: target 3 G4U,A11G (mixed)
RNA 1: B4 RNA 1
RNA 2: B4 RNA 2 with A30U, A41G, G46C, G48U
B25: target 3 G4U,A5G (mixed)
RNA 1: B4 RNA 1
RNA 2: B4 RNA 2 with A30U, G46C, A47G, G48U
B26: target 3 A11C,A18G (mixed)
RNA 1: B4 RNA 1
RNA 2: B4 RNA 2 with A30U, A34G, A41C, G46C
B27: target 3 insG 3' of 5 (mixed)
RNA 1: B4 RNA 1
RNA 2: GGGAAUGGAUCCACAUCUACGAAUUCGUUUUUGAUCUGAAAUAUUCAGGGUCUGCAGAUCGGAAGAGCACACGU
B28: target 3 del2,del6 (mixed)
RNA 1: B4 RNA 1
RNA 2: GGGAAUGGAUCCACAUCUACGAAUUCGUUUUUGAUCUGAAAUAUUAGGCUGCAGAUCGGAAGAGCACACGU
B29: target 3 A5C,C6A (mixed)
RNA 1: B4 RNA 1
RNA 2: B4 RNA 2 with A30U, G46A, A47C
B30: target 3 G3U,C6A (mixed)
RNA 1: B4 RNA 1
RNA 2: B4 RNA 2 with A30U, G46A, G49U
B31: target 3 insC 3' of 5,insC 3' of 5 (mixed)
RNA 1: B4 RNA 1
RNA 2: B5 RNA 2 with G47A, A48C, G49C, U51G, G52U
B32: target 3 U2A,C16U (mixed)
RNA 1: B4 RNA 1
RNA 2: B4 RNA 2 with A30U, C36U, G46C, U50A

Target: T1, EsCas13d, nuclease-dead
Experiment: crRNA (strand 1, pre-loaded); Mg2+; 40 mM Tris-HCl pH 7.5, 150 mM NaCl, 6 mM MgCl2, 1 mM DTT, 0.1% Tween-20, 0.2 mg/ml BSA; 25 C; 10 min per concentration, then washed
Details: tags: His6-TwinStrep-SUMO cleaved; N-terminal SNAP kept (SNAP-Surface 488); label: 3' end held by stalled T7 RNA polymerase

| Binder | Kd [nM] |
| --- | --- |
| B1 | 7.8 ± 0.7 |
| B2 | 8.4 ± 1.6 |
| B3 | 50 ± 10 |
| B4 | 26.2 ± 3.5 |
| B5 | 16.3 ± 3 |
| B6 | 32.2 ± 3.15 |
| B7 | 23.9 ± 3.2 |
| B8 | 88 ± 21.5 |
| B9 | 85.5 ± 24.5 |
| B10 | 76.5 ± 16 |
| B11 | 74.5 ± 7 |
| B12 | 32 ± 6.1 |
| B13 | 13.1 ± 1.7 |
| B14 | 84 ± 24 |
| B15 | 21.1 ± 2.25 |
| B16 | 2.11 ± 0.25 |

| Binder | Kd [nM] |
| --- | --- |
| B17 | 60.5 ± 12.5 |
| B18 | 70.5 ± 13.5 |
| B19 | 19.2 ± 1.95 |
| B20 | 65.5 ± 9 |
| B21 | 86 ± 34.5 |
| B22 | 47.5 ± 10.5 |
| B23 | 81 ± 22 |
| B24 | 43.5 ± 8 |
| B25 | 7.04 ± 0.57 |
| B26 | 73 ± 22.5 |
| B27 | 19.9 ± 1.95 |
| B28 | 18 ± 1.85 |
| B29 | 49 ± 5 |
| B30 | 39.7 ± 3.65 |
| B31 | 11.1 ± 0.7 |
| B32 | 45.2 ± 8.25 |
